Literature values, collected in publication PMC7022251.

Target: Beclin-1 BH3 (UniProt Q14457)
UniProt Q14457, sequence (Q14457 105-130): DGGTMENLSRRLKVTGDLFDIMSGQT

## M11 (from UniProt P89884)
  Kd: 0.04 µM
